Assay results from patent publication US20180140679A1, “MODULATION OF AXL RECEPTOR ACTIVITY IN COMBINATION WITH CYTOREDUCTIVE THERAPY” (THE BOARD OF TRUSTEES OF THE LELAND STANFORD JUNIOR …, priority 2016, published 2018).

How the values were obtained:
[1] = system: Axl and FLT3 phosphorylation in AML cells; assay: Western blot of Axl and FLT3 phosphorylation in AML cells; type: cell-based, human
From the text: Cell lysates subjected to sodium dodecyl sulfate polyacrylamide gel electrophoresis followed by transfer to nitrocellulose membrane. The membranes were then probed with primary antibodies against total Axl (AF154, R&D Systems, INC., Minneapolis, Minn.), phospho-Axl (T702; #5724, CST, Danvers, Mass.), total Akt (#4691 CST, Danvers, Mass.), phosphor-Akt (#4060, CST, Danvers, Mass.), anti-MERTK (#ab52968, Abcam, Cambridge, Mass.), phospho-MERTK (#ab14921 Abcam, Cambridge, Mass.), anti-Tyro3 (#5585, CST, Danvers, Mass.), phospho-Tyro3 (#orb186274, Biorbyt LLC, Berkely, Calif.), Bcl-2 Family Antibody Sampler Kit (#9934, CST, Danvers, Mass.), anti-Chk2 (#sc-5278, Santa Cruz Biotech, INC., Santa Cruz, Calif.), anti-XRCC1 (#2735, CST, Danvers, Mass.), anti-γH2AX (Merck Millipore #05636, Darmstadt, Germany), anti-phospho-ATM (#ab81292, Abcam, Cambridge, Mass.), anti-ATM (#ab78, Abcam, Cambridge, Mass.), anti phospho-ATR (#2853, CST, Danvers, Mass.), anti-ATR (#2790, CST, Danvers, Mass.), anti-Phospho Chk1 (#12302, CST, Danvers, Mass.), anti-Phospho Chk2 (#2197, CST, Danvers, Mass.) and anti-RPA32 (#2208, CST, Danvers, Mass.) at 4° C. overnight. The blots were then washed and probed with HRP conjugated anti-goat (#sc-2020, Santa Cruz Biotech, INC., Santa Cruz, Calif.), or HRP conjugated anti-rabbit (#A16110, Thermo Fisher Scientific, Walthan, Mass.) as appropriate. The blots were developed with Bio-Rad Western C developing reagent (#170-5060 Bio-Rad, Hercules, Calif.) and visualized with Chemidoc digital imager (#1708280, Bio-Rad, Hercules, Calif.).

human Gas6 = target: T1, human Gas6 (Homo sapiens, UniProt Q14393); assay: Kinetic Exclusion Assay (KinExA), Gas6-Axl binding, human Gas6
T1 sequence (Q14393 31-678): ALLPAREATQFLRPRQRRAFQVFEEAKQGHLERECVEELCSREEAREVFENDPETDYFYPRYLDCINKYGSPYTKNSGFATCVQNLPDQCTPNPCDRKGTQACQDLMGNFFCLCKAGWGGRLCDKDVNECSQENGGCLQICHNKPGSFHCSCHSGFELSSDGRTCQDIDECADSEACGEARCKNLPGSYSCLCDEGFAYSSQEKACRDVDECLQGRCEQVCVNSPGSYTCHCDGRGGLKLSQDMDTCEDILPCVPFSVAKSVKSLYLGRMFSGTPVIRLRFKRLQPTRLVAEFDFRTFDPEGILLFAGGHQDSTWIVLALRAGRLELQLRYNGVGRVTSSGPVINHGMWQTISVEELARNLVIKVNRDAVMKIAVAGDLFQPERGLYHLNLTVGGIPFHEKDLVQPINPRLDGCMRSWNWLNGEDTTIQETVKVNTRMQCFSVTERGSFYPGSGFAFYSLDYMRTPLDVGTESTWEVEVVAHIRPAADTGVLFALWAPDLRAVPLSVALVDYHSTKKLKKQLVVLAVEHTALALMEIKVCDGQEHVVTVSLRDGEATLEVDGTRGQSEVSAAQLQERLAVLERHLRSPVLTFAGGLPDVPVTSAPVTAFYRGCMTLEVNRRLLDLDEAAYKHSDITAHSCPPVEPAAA
Description: Equilibrium binding and association rate constants for all Gas6-Axl interactions were measured on a KinExA3200 instrument (Sapidyne Instruments Inc. Boise, Id.) as previously described. For equilibrium binding studies, three independent titrations were completed for each Axl Ig1 or Axl Fc fusion unless otherwise noted. […] After the appropriate incubation time, reactions were flowed over MYD1 Fc coated beads and captured free Gas6 was probed using an anti-6×HIS Dylight 649 antibody (#200-343-382, Rockland Immunochemicals Inc., Pottstown, Pa.). Each sample was measured twice and data from the three independent equilibrium binding experiments were globally analyzed using n-curve analysis in the KinExA Pro 3.6.2 software (Sapidyne Instruments Inc. Boise, Id.) to obtain the Kd value. To analyze the association rate of the interactions, the direct inject method was used. For these experiments, 1 μM Axl was serially diluted 1:2.5, and equal volumes of each Axl sample and 500 nM Gas6 were briefly mixed and flowed over the capture beads. Free Gas6 was detected as described and the data was fit using the KinExA Pro 3.6.2 software to obtain the association rate (kon) of the interaction. The dissociation rate (koff) was calculated as the product of the Kd and the kon.

free, circulating Gas6 [2] = target: T2, free, circulating Gas6 (Mus musculus, UniProt Q61592); assay: In vivo Gas6 serum ELISA (sequestration of endogenous Gas6); conditions: single 0.5 mg/kg dose via tail vein, up to 36 hours
T2 construct: from tissue; host or cells: mouse serum (nude nu/nu mice)
T2 sequence (Q61592 28-674): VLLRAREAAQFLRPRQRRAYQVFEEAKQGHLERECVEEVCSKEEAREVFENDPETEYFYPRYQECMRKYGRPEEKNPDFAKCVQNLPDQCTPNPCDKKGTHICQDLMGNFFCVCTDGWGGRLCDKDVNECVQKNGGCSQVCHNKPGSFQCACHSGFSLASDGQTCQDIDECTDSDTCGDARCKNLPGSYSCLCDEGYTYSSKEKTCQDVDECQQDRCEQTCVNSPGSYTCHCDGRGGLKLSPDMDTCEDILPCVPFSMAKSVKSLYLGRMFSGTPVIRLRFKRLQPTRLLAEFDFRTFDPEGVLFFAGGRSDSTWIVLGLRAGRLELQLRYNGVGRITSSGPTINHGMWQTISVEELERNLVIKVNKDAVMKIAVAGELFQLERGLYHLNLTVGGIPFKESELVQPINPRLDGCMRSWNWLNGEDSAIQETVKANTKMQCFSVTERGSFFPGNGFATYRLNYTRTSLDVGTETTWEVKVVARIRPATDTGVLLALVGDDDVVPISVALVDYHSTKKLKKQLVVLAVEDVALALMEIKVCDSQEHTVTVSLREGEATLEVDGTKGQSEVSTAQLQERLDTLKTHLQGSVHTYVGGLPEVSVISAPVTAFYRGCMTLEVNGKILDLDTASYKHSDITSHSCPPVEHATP
Description: The amount of free, circulating Gas6 (i.e. not neutralized by the decoy receptor) was then quantified.
All doses were formulated in a 200 μl volume. Two mice were analyzed per condition and untreated mice were used to determine baseline Gas6 levels. At 2, 12, 24, and 36 h post-administration, retro-orbital bleeds were performed to obtain blood samples from which serum was isolated and free Gas6 was measured as previously described. The amount of free Gas6 in each sample was determined using a sandwich ELISA. In this assay, MYD1 Fc was used as a capture reagent in order to ensure the detection of free, unbound Gas6, and not Gas6/Axl Fc complexes. Detection of Gas6 was carried out using a biotinylated polyclonal anti-mouse Gas6 antibody (BAF986, R&D Systems, INC., Minneapolis, Minn.) and streptavidin HRP (#4800-30-06 Trevigen Inc., Gaithersburg, Md.).

free, circulating Gas6 [3] = target: T2, free, circulating Gas6; conditions: as previously determined using the same assay; cited from earlier work

B1: MYD1 Fc: Fc fusion of the first generation Axl decoy receptor MYD1 (protein)
chain: APRGTQAEESPFVSNPGNITGARGLTGTLRCQLQVQGEPPEVHWLRDGQILELADSTQTQVPLGEDEQGDWIVASQLRITSLQLSDTGQYQCLVFLGHQTFVSQPGYVRLEGLPYFLEEPEDRTVAANTPFNLSCQAQGPPEPVDLLWLQDAVPLATAPGHGPQRSLHVPGLNKTSSFSCEAHNAKGVTTSRTATITVLPQQPRNLHLVSRQPTELEVAWTPGLSGIYPLTHCTLQAVLSNDGMGIQAGEPDPPEEPLTSQASVPPHQLRLGSLHPHTPYHIRVACTSSQGPSSWTHWLPVETPEGVPLGPPENISATRNGSQAFVHWQEPRAPLQGTLLGYRLAYQGQDTPEVLMDIGLRQEVTLELQGDGSVSNLTVCVAAYTAAGDGPWSLPVPLEAWRPGQAQPVHQLVKEPSTPAFS
modifications: left off: a dimerising Fc or GST
With B1 the “Axl and FLT3 phosphorylation” value [1] was “inhibited Axl and FLT3 phosphorylation”, the koff (human Gas6; calculated as the product of the Kd and the kon) was 1.0 10^−5 s^−1 and the kon (human Gas6; direct inject method) was 2.3 10^7 M^−1 s^−1. For the same molecule, the “free, circulating Gas6 in serum” value (free, circulating Gas6 [2]) was “rapidly eliminated free Gas6 upon administration” and the “in vivo IC50” value (free, circulating Gas6 [3]) was 0.5 mg/kg.
